Assay results: CN112500484A (MEDX TRANSLATIONAL MEDICINE CO LTD, dated 2021)

Target: T1, 人TROP2蛋白C端合成多肽 Arg299-Leu323, 裸肽 (not coupled to KLH) (human)
T1 construct: also called 抗原多肽
T1 peptide: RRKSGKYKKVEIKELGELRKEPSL
Assay: indirect ELISA screen of transiently expressed antibodies

- binding result: binds
B1: MJ1-1抗体 (rabbit anti-human TROP2 monoclonal antibody) (antibody, V domains shown)
VH: QSVEESGGRLVTPGTPLTLTCTVSGIDLSSDAIFWVRQAPGEGLKYIGFIHPAGVTYYAAWARGRFTISRTSTTVDLKMTRLTTEDTATYFCGRYFGYASIDIWGPGTLVTVSS
VL: AQVLTQTPSSTSAAVGGTVTINCQSSQNVYDKNQLSWFQQKPGQPPKLLIYKASTLASGVPSRFSGSGSGTQFTLTISGVECDDAATYYCAGVYTGNIYTFGGGTEVVVKG
notes: also called MJ1-1单克隆抗体; 抗TROP2抗体
